Reference: the DeepSol protein solubility set

test: soluble on expression in E. coli; label from the status in PepcDB or PDB records

Sequence | soluble on expression in E. coli
MSFSADALEGGLSSLKLAADKYRSILNDEKTGNIRWRYGGPPIFDTVNKLFEEERTHVQWRYDNPPDFNSVNQLFEEGQTKVWPEGSLEETVQNAIKSWEMEFSHKIRLQDFKTINPEKFKLFVNGREGLSAEETLRLGSYNALLKNSLPEEFQYYKPEEESFESSHDAFRSALPRGFAWEILSVYSGPPVIAFKFRHWGYFEGTFKGHAPTGEMVQFLGLGVLKVDESLRAEEIEIYYDPGELFGGLLKGPPISETKTTDSGDNTAEKQSCPFTH | soluble
MNQIIENAFVKVEVSPHGAELQSIFNKQFHLEYLWQGDPAVWPRKAPVLFPIVGKVKDNQYTISGKTYSLSQHGFARDNAFTLVSATDTTLVYRLTHSEDSFKNFPYEFELDISYSIEHSILKVAYKIHNSSGTSDLYYSIGAHPGFRCPLVEGETFEDYYLEFEKAEKLNRVLLDGGLRGDQTEPVPLTNNKLPLSVNLFGSKDAIVVSGLHSERISLKSNKSVHGLHFDYKNYPWFGIWSKPGPFVCLEPWMGVADDIHAAGDFIKKESIQFLQPKAEALFTYSIELFLEHHHHHH | not soluble
MSLLIKNGKIFTCEEGKIYEKGDILIKDGKISKIGEDLSQYIGEEEVIDAKGLLIFPGFIEAHCHLGLHEEGNNGAGNGTNEASEPITPQMRAIDGINPFDGGFQSAREAGVTTAVIGPGSANVIGGQFAAVKTSGICIDDMIIKESVAIKVAFGENPKRVYSGKNKMPNTRMAIAALLRETLTEAVNYKNRKIDAEIEDKDFSKNLKYEALLPLINREIPMKAHAHRADDILTAIRIAKEFNLKLTLDHCTEGHLISDYIKRENLDAIVGPTLSFNGKAETLNKTFKTPKALIDKGIKVAITTDHPVVTIDNLPLCAAMAMKEGITFNEVLEAITINPAEIIGIDERVGSLKEGKDGDLVILNGSPFEIATKTIYTIINGEVVYKDEGHHHHHH | soluble
MIQDETLEREVADLVISTLNLDVSPESVDPEAPLYREGLGLDSIDILEIALVVSKRYGFQLRADNEDNVLEHHHHHH | not soluble
MSLWPQMQYRQLQLAREKLLERLARKRNSTVITLIHRQESIGLFGIPVYRFISIEDSEEVLRAIRMAPKDKPIDLIIHTPGGLVLAATQIAKALKDHPAETRVIVPHYAMSGGTLIALAADKIIMDPHAVLGPVDPQLGQYPAPSIVRAVEKKGVDKVDDQTLILADVAEKAIRQVRDFIFNLLKDKYGEEKAKELAQVLTEGRWTHDYPITVEEAKKLGLNVSTDVPEEVYALMELYKQPIRQRGTVEFVPYPMKQEGKHEGHHHHHH | soluble
MNPGKPMPLVVHGWTIFAHPLFLAQIEVLIQQVEAHKQKDPVGFVKKNASKRLAAITKLAFDIILQDPARPEYRQGGTLGDDYKHWFRAKFFQQYRLFFRYHTLSKVIVFAWVNDEDTRRAYESSDDAYRMFRKMLENGLPPDDWNQLLAEARAEGQRLQQFAARWW | not soluble
MGSDKIHHHHHHMFHPIEEALDALKKGEVIIVVDDEDRENEGDFVALAEHATPEVINFMATHGRGLICTPLSEEIADRLDLHPMVEHNTDSHHTAFTVSIDHRETKTGISAQERSFTVQALLDSKSVPSDFQRPGHIFPLIAKKGGVLKRAGHTEAAVDLAEACGSPGAGVICEIMNEDGTMARVPELIEIAKKHQLKMITIKDLIQYRYNLTTLVEREVDITLPTDFGTFKVYGYTNEVDGKEHVAFVMGDVPFGEEPVLVRVHSECLTGDVFGSHRCDCGPQLHAALNQIAAEGRGVLLYLRQEGRGIGLINKLKAYKLQEQGYDTVEANEALGFLPDLRNYGIGAQILRDLGVRNMKLLTNNPRKIAGLEGYGLSISERVPLQMEAKEHNKKYLQTKMNKLGHLLHF | not soluble
MAHHHHHHMGTLEAQTQGPGSMNAAVIDSHSAQDYVVADIALAGWGRKELNIAETEMPGLVQIRDEYKAQQPLKGARIAGSLHMTIQTGVLIETLKALGADVRWASCNIFSTQDHAAAAIVEAGTPVFAFKGESLDEYWEFSHRIFEWPNGEFANMILDDGGDATLLLILGSKAEKDRSVIARPTNEEEVALFKSIERHLEIDGSWYSKRLAHIKGVTEETTTGVHRLYQMEKDGRLPFPAFNVNDSVTKSKFDNLYGCRESLVDGIKRATDVMIAGKIAVVAGYGDVGKGCAQSLRGLGATVWVTEIDPICALQAAMEGYRVVTMEYAADKADIFVTATGNYHVINHDHMKAMRHNAIVCNIGHFDSEIDVASTRQYQWENIKPQVDHIIFPDGKRVILLAEGRLVNLGCATGHPSFVMSNSFTNQTLAQIELFTRGGEYANKVYVLPKHLDEKVARLHLARIGAQLSELSDDQAAYIGVSKAGPFKPDHYRY | soluble
MLKNEETEKKLNLNQQRLGTVVAVLKSVNAKKVIDLGCGEGNLLSLLLKDKSFEQITGVDVSYSVLERAKDRLKIDRLPEMQRKRISLFQSSLVYRDKRFSGYDAATVIEVIEHLDENRLQAFEKVLFEFTRPQTVIVSTPNKEYNFHYGNLFEGNLRHRDHRFEWTRKEFQTWAVKVAEKYGYSVRFLQIGEIDDEFGSPTQMGVFTLGAGGHHHHHH | soluble
MKYPQVWDLDTFFKGGSQSSDFQHFVKETEELVDKLVASTSAKMTLAQLVNELVNVQKVMQRLRHGAAFVSCLKAQNVKDEHAFQWQGKLNELQAKLQNIWVELEATFGRMEDGEWQELLNHPQLSDITFSLNERRQAAAEKLAPEQEKLVAQLAVDGYHAWGEVYNQAVGRMEIPFEEDGETKRLSP | not soluble
AIALTYIILVLHLQNHVWEDVTVHNSSLPPLAIKHPECLGLLHQLERSTDVWIQHYCILKDGCLYFYASIRSTQASGGLYLQGYSVSEQTHGFEQPVIELKPSSEEFKTFYFCAENKTENQRWIAALKTSIKKWLPLDQAIQEFMSRPLEETRM | soluble
MRRLLLLVILFGCMSVINLAAGCNAQICTCPGGGYVTYGQYCPVNTPSYSAPPDAPPVDMYYFILDIKNNSYQLVDLKTKNFLTALDRSLSCDRSTQVCTVVSIREYLAVVVSEDNRLFIGKADAFYKGTGKKAEKAAIDDCKKGKEANGNGVMGDGIKGKKCRLIRLFSPNFKLENIETKQKYDLKVTGSL | not soluble
MGHHHHHHSHMAFPGQSDTKMQWPEVPALPLLSSLCMAMVRKSSALGKEVGRRVKEMVMLVAPFRQSSSLSRTFSSRKVVKAHASLHGARLSPLSRNIRG | not soluble
MSFRIYNTQKWSAEQMAPYLDKVIKSIAYFHKKFPDDYTPQTILNDILKGDKLLWIIVDEQENFMAHVTTELQKLVTGALRAVIVTLGGKGGAPLTKLIPQIEAYYKEKGAKELIIIGRRGWKKSLKSHGYFVNLLEYRKQL | not soluble
MIPIERHQKILALVAERGVVSIAELTERLGVSHMTIRRDVQKLEEQGAVLSVSGGVRSTQRLAIEPSHQDKTMMFSRQKQAIGTSAALHIPRNSCIYLDAGTTTLALARQLEDRDDLLVVTNDFVIANFLIESSQCRMIHSGGTLCRKNRSCIGEAAAHSLRNLSIDIAFISASCWGLRGISTPDEDKVPVKRAISEASSKRVLLADASKYGKVATYLALPLTAFDVVITDNSLSSTVYEELAEKALELIIASPPR | not soluble
MEPLMNQSLHICGCCKRELPHEAFYTNKRTGTLDNYCKECRKANTRKRRDLRRCTSFENKPVSYPVITEVKDPALRMLLILHARQVVAESISRKQEKEKLNTLWEE | not soluble
GVRFAFGPTVDFHFGENYAFSTGAWYLSSRAGLSQSVPGLTYKEIVSLQSVQIPVTFKAYTNEIATNMKLYFQLGGLATFNFYEKFKESTPSNSSYDDKYNVFDVSLYVGAGVSYKIGESNALFGGFYYSRGLMNMLDGSTIPGTSDRYKKAAKYNNDLVGLEVGITF | not soluble
MGSDKIHHHHHHMINFLPYSLDILRAADRDRYISVLFAPKKKRRALAALYAFNAEIARIRENVHNPLIGEIRLRWWYDSIAKSEMEKSESNPILSDLFMAMTLFNLPKTAFLRYCDAQILDLYHNPIATLYDLEFYCGETASIILQLSCQILDPDMAQNFTDAYQHAGIAQGLSGVLRLLSFMQSRYQYYLPADMLKALGIKREELESNRISKEQKCHVIEAMVALSRDHYNRFYEYFNMMPKTLKPAFLPLAIIPASLQKAIQLGAAVFQENAALPLLHRYWFITKAAISSNLPKIL | not soluble
MGSDKIHHHHHHMSNQTLKKISELDVFCLMVFKVIFQTGHANIAAKQLNVSAPKISRCLNMLRATFDDELFYRRQLGLKPTPMAEFLYEPVCQFCEAVLKIEQSISEKSSELASERLRVAVTPSIMASLSLAFSRSNARDAFSQLQFVIWGDDSADQIHNGELDMGVTFDACNEHPLSVEALGCLSGVCLAANEEHAIWSQSEPLTLETICRHPFLCLDGKGFNDKIDPLEVFARQNGADIDSIERVSSRDEWYSHLLTMNSVAFLPCSEAEICGALPGIRVVRLSDEEVGRLHGESMSPQYLLLENPAEYRRYSLEQRELIIQLIKQLLVKC | not soluble
MGSDKIHHHHHHLYFLDNQLAQQIVDRTMAIIGHNINVMNSQGVILGSGEPHRIGSTHEGALLAISQNRTVELNSASAASLQGVKPGINLPLHYQGEIIGVIGITGEPEHLKAFGELLKMTAEMIVEQANSLDVAQWRARQQEEFILQLIKPEGRDLNHLKIWAQRLDIDLEMPRVAAVLRISDDAGDELANSQLKTVLHLLETPSRGNLIAMTSMTELVILKPAFLDGKAWSAEAESLRIDRLLKRLPSELNARLKISLGHYFPATMDINRSYQTALETLNFGQQLHPEQSKYLYEDHALLVMLSGLKHDWRGEQLLRPFQRLIDRDKNALLRKTLASYLGHFGDQQACAKALFIHRNTLRYRLDKIAQITKVDIQKLDGLLQLYLGQVLLSRGQDQG | not soluble
SSFSWDNCDEGKDPAVIRSLTLEPDPIIVPGNVTLSVMGSTSVPLSSPLKVDLVLEKEVAGLWIKIPCTDYIGSCTFEHFCDVLDMLIPTGEPCPEPLRTYGLPCHCPFKEGTYSLPKSEFVVPDLELPSWLTTGNYRIESVLSSSGKRLGCIKIAASLKGI | soluble
MGSDKIHHHHHHMDNLMLNNKIYLEGTCVSNLEFSHEMYGEGFYTFKISVNRLSDVKDILPVTISERLLTEIDIKEGAELIIEGQLRSYNKFIEGSNRLILTVFARDVQPCIEKSKNPNQIFLDGYICKEPIYRTTPFGREIADILLAVNRPYNKSDYIPTISWGRNSRFCKTLNVGDNIRVWGRLQSRKYQKKVGEDEVVTKTAYEVSISKLEYADEIDEEIDKSVENLAE | not soluble
MSLNLWGDRVGYSKYKYEGLLNLCLEVFQRLGYTKEDSYTIGEVLLLADLFGIESHGVQRLTLYYKGIRNGSIKVKNHMNIVKESPVSVVIDGDGGMGQIISKKAMERAIDKAKKTGIGMAIVKNSNHFGIAGYYSRMAERKGLMGIAMTNTRAIVLPTYGREQMLGTNPISIAMPARPIPFLLDMATSVITRGKVEVYSKNNQKLNYGWAMDDEGRKTDNPDKVLKLANGNTGGLLPLGGDTEIFGGHKGYGISFAVEMFTSILSGGLTSDEIRGNNNTNGVCHAFAAIDYGLFDDKNAIEKRMSAYMQKIRNSKKAYGASRIYTHGEKELEAYEDRMENGIPINENTIVEIKEICDYVDIDINNYLKEGHHHHHH | soluble
MGSDKIHHHHHHMDKLSFNIFPNVNFIDLCMYQFGHEQCEPGHSFGPATRNHYLFHYVLSGTGTLMADNAKGITQTYNIKSGQGFLIFPGQINTYIADDKLPWEYIWIEFDGLRVKEALTTTELTKNNPVYHTHSKDIREKLVEEMLYITRHPSESPYHLIGHMYLFLDYLMQSAKSSKLVPGGKMSDFYIKEAMNYIEQNFQNDISIEDIAGVCGINRSYLGKIFKNSVGHSPQEFLMNYRMIKATELLKLTSLSIADVGSAVGYENQLHFSRAFKNIYGVAPREWRNEHK | not soluble
